The source of these data is article PMC4704858 (Science (New York, N.Y.), 2015).

The series deals with the molecule itself. Description: crystal structure.

Broadly, the stoichiometry N is a count of units in the complex or per binding partner.

B1: MvINS, an Insig homolog from Mycobacterium vanbaalenii PYR-1 (wild type) (natural protein)
chain: MRLRISEAVVLFLLGAVAALIGDHSHVVTGTTVYHTDAVPFVWSSPFWFPILVGAATASLAELRLHLPAPRDGVTARQALGGVAAVVGTYVTTALVHAFPVVPVTALVCAAAAITWCVLGDGPGAACGVVIAVIGPAVEIALVQLGVFAYHPDSDGLFGVAPFLAPLYFAFGVVAALLGELAVARRPQLGPPVCDTVSRGPGAG
For the protein B1, the “stoichiometry N” value is 3.
